In patent publication US20240166745A1 (Eli Lilly, published 2024):

B1: Antibody A (bispecific antibody, human IgG1, kappa, lambda)
heavy 1: not shown
light 1: DIVMTQTPLSLPVTPGEPASISCRSSQSLLDSAEGSTYLDWFLRKPGDSPQLLIYTLSYRASGVPDRFSGSGSGTDFTLKISRVEAEDVGVYYCMQRVEFPYTFGQGTKVEIKRTVAAPSVFIFPPSKEQLKSGTASVVCLLNNFYPREAKVQWKVDNALQSGNSQESVTEQDSKDSTYSLSSTLTLSKADYEKHKVYACEVTHQGLSSPVTKSFNRGEC
heavy 2: QVQLVQSGAEVKKPGASVKVSCKVSGYSLSKYDMSWVRKAPGKGLEWMGIIYTSGYTDYAQEFQGRVTMTEDTSTDTAYMELSSLRSEDTAVYYCATGNPYYTNGFNSWGQGTLVTVSSASTKGPSVFPLAPSSKSTSGGTAALGCLVKDYFPEPVTVSWNSGALTSGVATGPAVLQSSGLYSLSSVVTVPSSSLGTQTYICNVNHKPSNTKVDKRVEPKSCDKTHTCPPCPAPELLGGPSVFLFPPKPKDTLMISRTPEVTCVVVDVSHEDPEVKFNWYVDGVEVHNAKTKPREEQYNSTYRVVSVLTVLHQDWLNGKEYKCKVSNKALPAPIEKTISKAKGQPREPQVYTLPPSREEMTDNQVSLTCLVKGFYPSDIAVEWESNGQPENNYKTTPPVLMSDGSFFLASKLTVDKSRWQQGNVFSCSVMHEALHNHYTQKSLSLSPGK
light 2: RIQMTQSPSSLSASVGDRVTITCQASQSPNNLLAWYQDKPGKAPKLLIYGASDLPSGVPSRFSGSGSGTDFTLTISSLQPEDFATYYCQNNYYVGPVSYAFGGGTKVEIKGQPKAAPSVTLFPPSSEELQANKATLVCYISDFYPGAVTVAWKADSSPVKAGVETTTPSKQSNNKYAAWSYLSLTPEQWKSHRSYSCQVTHEGSTVEKTVAPTEC
notes: IgG-like bispecific with one LAG-3 arm and one PD-1 arm; also called human LAG-3/human PD-1 dual agonist bispecific antibody
B2: Antibody B (bispecific antibody, human IgG1, kappa, lambda)
heavy 1: not shown
light 1: DIVMTQTPLSLPVTPGEPASISCRSSQSLLDSAEGSTYLDWFLRKPGDSPQLLIYTLSYRASGVPDRFSGSGSGTDFTLKISRVEAEDVGVYYCMQRVEFPYTFGQGTKVEIKRTVAAPSVFIFPPSKEQLKSGTASVVCLLNNFYPREAKVQWKVDNALQSGNSQESVTEQDSKDSTYSLSSTLTLSKADYEKHKVYACEVTHQGLSSPVTKSFNRGEC
heavy 2: QVQLVQSGAEVKKPGASVKVSCKVSGYSLSKYDMSWVRKAPGKGLEWMGIIYTSGYTDYAQEFQGRVTMTEDTSTDTAYMELSSLRSEDTAVYYCATGNPYYTNGFNSWGQGTLVTVSSASTKGPSVFPLAPSSKSTSGGTAALGCLVKDYFPEPVTVSWNSGALTSGVATGPAVLQSSGLYSLSSVVTVPSSSLGTQTYICNVNHKPSNTKVDKRVEPKSCDKTHTCPPCPAPELLGGPSVFLFPPKPKDTLMISRTPEVTCVVVDVSHEDPEVKFNWYVDGVEVHNAKTKPREEQYNSTYRVVSVLTVLHQDWLNGKEYKCAVSNKALPAPIEKTISKAKGQPREPQVYTLPPSREEMTDNQVSLTCLVKGFYPSDIAVEWESNGQPENNYKTTPPVLMSDGSFFLASKLTVDKSRWQQGNVFSCSVMHEALHNHYTQKSLSLSPGK
light 2: RIQMTQSPSSLSASVGDRVTITCQASQSPNNLLAWYQDKPGKAPKLLIYGASDLPSGVPSRFSGSGSGTDFTLTISSLQPEDFATYYCQNNYYVGPVSYAFGGGTKVEIKGQPKAAPSVTLFPPSSEELQANKATLVCYISDFYPGAVTVAWKADSSPVKAGVETTTPSKQSNNKYAAWSYLSLTPEQWKSHRSYSCQVTHEGSTVEKTVAPTEC
notes: also called human LAG-3/human PD-1 dual agonist bispecific antibody

What was measured:
Cynomolgus PD-1-ECD = target: T1, Cynomolgus PD-1-ECD (cynomolgus, UniProt B0LAJ3 25-170); assay: SPR (Biacore T200), antibody captured on PrismA chip, ECD as analyte, 25° C.
T1 construct: commercial protein; also called cynomolgus PD-1-ECD (Sino Biologicals, Cat #90311-C08H); not shown: C-terminal polyhistidine tag of the vendor product (Sino Biological 90311-C08H)
Method: (§1) A Biacore® T200 (Cytiva, Marlborough, MA) was used to measure the binding kinetics and affinities of the LAG-3 antibody to the LAG-3 soluble extracellular domain (ECD) and the bispecific antibody to soluble LAG-3-ECD and PD-1-ECD (human: Sino Biologicals, Cat #10377-H08H; cynomolgus: Sino Biologicals, Cat #90311-C08H) by surface plasmon resonance. Samples were diluted in HBS-EP+ (10 mM Hepes, 150 mM NaCl, 3 mM EDTA, 0.05% Tween-20, pH 7.6) (Teknova Cat #H8022) with 5 g/L of BSA (Jackson ImmunoResearch Cat #001-000-161) running buffer. PrismA Series S Sensor chip (Cat #29650263) is purchased from Cytiva.
(§2) Binding was evaluated using multi-cycle kinetics by an antibody capture method. Each cycle was performed at either 37° C. or 25° C. at a flow rate of 10 μL/min for antibody capture to the PrismA chip and 100 μL/min for analyte association (with 120 sec contact time) and dissociation (900 sec). Each cycle consisted of the following steps: injection of bispecific antibody at 1 μg/mL in HBS-EP+ targeting Rmax values of 125 RU (LAG-3 arm), 294 RU (PD-1 arm) and 63 RU (LAG-3 antibody) on flow cell, injection of analyte in HBS-EP+(concentration range of 62.5 nM to 0.25 nM by two-fold serial dilution for both human PD-1-ECD-His (SEQ ID NO: 40) and human LAG-3-His (SEQ ID NO: 42) followed by 900-second dissociation phase, and regeneration using 10 μL of 10 mM glycine hydrochloride, pH 1.5 over a 60-second contact time utilizing a 10 μL/min flow rate. All analyte concentrations were determined utilizing monomeric molecular weight (MW) values. Association rates (kₒₙ) and dissociation rates (koff) for LAG-3-ECD and PD-1-ECD were evaluated using double referencing by flow-cell one reference subtraction in addition to 0 nM blank subtraction and fit to “1:1 (Langmuir) binding” model in the BIAevaluation software version 4.1. The dissociation constant (KD) was calculated from the binding kinetics according to the relationship KD=Koff/Kₒₙ. Stoichiometry=[RUₘₐₓ/RUcaptured]/[MWanalyte/MWantibody] where MWAntibodyA is 150 kDa. Values are reported as mean±standard deviation.

Human PD-1 ECD-His = target: T2, Human PD-1 ECD-His (human, UniProt Q15116 25-167); assay: as above
T2 construct: Soluble analyte in SPR; the entry includes the His tag
Method: as §1, §2

Cynomolgus LAG-3-ECD [1] = target: T3, Cynomolgus LAG-3-ECD (cynomolgus); assay: as above
T3 construct: as printed it starts with the N-terminal leader (MWEAQ...) and ends with a His tag; also called Cynomolgus LAG-3 ECD-His
T3 chain: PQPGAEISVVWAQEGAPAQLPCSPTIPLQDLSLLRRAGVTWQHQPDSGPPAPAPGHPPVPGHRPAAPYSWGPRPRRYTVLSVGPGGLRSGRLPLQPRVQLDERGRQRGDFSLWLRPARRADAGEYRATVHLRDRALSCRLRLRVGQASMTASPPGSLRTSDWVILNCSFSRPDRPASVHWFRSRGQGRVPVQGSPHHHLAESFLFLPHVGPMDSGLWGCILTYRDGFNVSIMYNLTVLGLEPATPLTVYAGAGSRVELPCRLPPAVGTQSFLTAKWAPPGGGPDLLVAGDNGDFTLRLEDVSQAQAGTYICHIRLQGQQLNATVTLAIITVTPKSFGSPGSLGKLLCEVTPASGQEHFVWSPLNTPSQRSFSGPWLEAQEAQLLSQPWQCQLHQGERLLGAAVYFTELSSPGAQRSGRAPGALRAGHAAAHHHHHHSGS
Method: as §1, §2

[2] = target: T4, cell membrane-expressed human LAG-3/PD-1 (human, UniProt P18627 23-525; Q15116 25-288); assay: flow cytometry, labeled antibody on anti-CD3 activated human PBMC, CD8 T cells, percent of cells bound (mean +/- SEM, n=3)
T4 construct: also called Human CD4
Method: (§3) Cells were incubated with 10-12 point, 3-fold serial dilutions of the respective labeled antibody (Invitrogen #S20026, Invitrogen #C20029), starting at 30 ug/mL, in PBS+2% FCS for 30 minutes at 4° C. and containing the following: CD4 eBioscience #12-0047-42 or Biolegend #344634; CD8 eBioscience #25-0088-42; CD3 eBioscience 56-0038-82 for human cells and BD #557917 for cyno cells; CD33 eBioscience 45-0338-42 for human cells; Live/Dead eBioscience #65-0865-18. After washing thoroughly, cells were processed on a BD Fortessa or Fortessa X20 cytometer, and data were analyzed with Flowjo software (BD Biosciences). Percent of cells bound by the respective antibody is quantified and graphed with Prism (Graphpad, San Diego, CA).

[3] = target: T5, cell membrane-expressed cynomolgus LAG-3/PD-1 (cynomolgus); assay: flow cytometry, labeled antibody on anti-CD3 activated cynomolgus PBMC, CD4 T cells, percent of cells bound (mean +/- SEM, n=3)
T5 construct: whole, on cells; Two separate membrane proteins on the same cells, not a complex; also called Cyno CD4
Method: as §3

[4] = target: T5, cell membrane-expressed cynomolgus …; assay: flow cytometry, labeled antibody on anti-CD3 activated cynomolgus PBMC, CD8 T cells, percent of cells bound (mean +/- SEM, n=3)
Method: as §3

[5] = target: PathHunter U2OS PD-1/LAG-3 dimerization cell line (human PD-1 aa 1-199-EA and human LAG-3 aa 1-477-PK) (human); assay: cell-based or functional assay
Cynomolgus LAG-3-ECD [6] = target: T3, Cynomolgus LAG-3-ECD; assay: SPR (Biacore T200), antibody captured on PrismA chip, ECD as analyte, 37° C.
Method: as §1, §2

T2 sequence (Q15116 other isoform, or with tags, fused parts or gaps): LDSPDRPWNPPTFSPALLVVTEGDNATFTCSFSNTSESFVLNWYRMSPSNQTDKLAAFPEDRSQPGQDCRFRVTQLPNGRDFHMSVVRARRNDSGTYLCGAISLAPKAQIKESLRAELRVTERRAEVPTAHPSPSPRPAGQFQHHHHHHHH
T1 sequence (B0LAJ3 entry or part of it limits assumed): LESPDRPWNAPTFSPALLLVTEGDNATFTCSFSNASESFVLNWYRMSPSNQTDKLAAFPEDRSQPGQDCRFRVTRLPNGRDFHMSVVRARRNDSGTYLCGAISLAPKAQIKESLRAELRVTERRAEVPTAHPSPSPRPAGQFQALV
T5 sequence (P79185 26-458): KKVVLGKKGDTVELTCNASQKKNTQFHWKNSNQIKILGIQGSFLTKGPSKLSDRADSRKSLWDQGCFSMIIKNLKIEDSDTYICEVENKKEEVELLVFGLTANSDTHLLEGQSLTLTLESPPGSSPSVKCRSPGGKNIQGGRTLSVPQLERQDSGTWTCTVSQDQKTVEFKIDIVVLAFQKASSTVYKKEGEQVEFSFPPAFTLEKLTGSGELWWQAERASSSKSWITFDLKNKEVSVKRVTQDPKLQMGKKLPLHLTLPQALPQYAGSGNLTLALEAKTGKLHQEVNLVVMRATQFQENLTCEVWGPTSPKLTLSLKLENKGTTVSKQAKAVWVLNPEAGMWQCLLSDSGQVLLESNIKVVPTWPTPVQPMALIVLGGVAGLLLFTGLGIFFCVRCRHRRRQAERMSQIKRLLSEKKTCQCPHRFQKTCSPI
Sequence of PathHunter U2OS PD-1/LAG-3 dimerization cell line (human PD-1 aa 1-199-EA and human LAG-3 aa 1-477-PK) (human) (Q15116 1-199, chain 1 of 2): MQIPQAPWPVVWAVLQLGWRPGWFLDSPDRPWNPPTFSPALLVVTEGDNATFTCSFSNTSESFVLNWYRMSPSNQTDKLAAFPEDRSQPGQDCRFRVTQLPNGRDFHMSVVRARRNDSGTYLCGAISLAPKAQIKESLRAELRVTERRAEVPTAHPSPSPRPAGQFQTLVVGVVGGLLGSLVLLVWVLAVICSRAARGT
Sequence of PathHunter U2OS PD-1/LAG-3 dimerization cell line (human PD-1 aa 1-199-EA and human LAG-3 aa 1-477-PK) (human) (P18627 1-477, chain 2 of 2, further chain): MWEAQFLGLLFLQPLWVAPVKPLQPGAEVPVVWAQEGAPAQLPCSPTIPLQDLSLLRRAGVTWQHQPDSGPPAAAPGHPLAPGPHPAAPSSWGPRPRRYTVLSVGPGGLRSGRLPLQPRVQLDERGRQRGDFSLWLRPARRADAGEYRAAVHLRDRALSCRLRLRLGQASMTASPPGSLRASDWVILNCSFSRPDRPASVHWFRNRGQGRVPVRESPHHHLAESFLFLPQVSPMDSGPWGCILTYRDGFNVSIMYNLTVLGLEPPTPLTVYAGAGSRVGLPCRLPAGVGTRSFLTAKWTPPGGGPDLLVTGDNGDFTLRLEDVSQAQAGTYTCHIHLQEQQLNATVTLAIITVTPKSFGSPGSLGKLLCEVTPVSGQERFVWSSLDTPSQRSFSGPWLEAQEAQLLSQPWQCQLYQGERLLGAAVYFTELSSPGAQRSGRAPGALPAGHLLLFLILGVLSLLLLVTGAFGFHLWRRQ
T4 sequence (Q15116 25-288 limits assumed, one chain of several): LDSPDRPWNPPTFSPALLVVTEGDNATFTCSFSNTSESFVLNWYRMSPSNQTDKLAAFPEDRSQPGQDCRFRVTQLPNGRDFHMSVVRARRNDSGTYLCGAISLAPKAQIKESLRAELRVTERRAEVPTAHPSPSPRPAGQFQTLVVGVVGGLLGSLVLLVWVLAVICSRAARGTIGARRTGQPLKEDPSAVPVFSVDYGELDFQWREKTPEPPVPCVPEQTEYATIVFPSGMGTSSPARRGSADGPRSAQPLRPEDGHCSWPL

Binder	Kd (Cynomolgus PD-1-ECD) [nM]	koff (Cynomolgus PD-1-ECD) [s⁻¹]	kon (Cynomolgus PD-1-ECD) [M⁻¹ s⁻¹]	Kd (Human PD-1 ECD-His) [nM]	koff (Human PD-1 ECD-His) [s⁻¹]	Kd (Cynomolgus LAG-3-ECD [1]) [nM]	koff (Cynomolgus LAG-3-ECD [1]) [s⁻¹]	kon (Cynomolgus LAG-3-ECD [1]) [M⁻¹ s⁻¹]	EC50 [2] [µg/mL]	EC50 [3] [µg/mL]	EC50 [4] [µg/mL]	EC50 for induction of PD-1 and LAG-3 dimerization (enzyme fragment complementation, luminescence) [5] [nM]	Kd (Cynomolgus LAG-3-ECD [6]) [nM]	koff (Cynomolgus LAG-3-ECD [6]) [s⁻¹]	kon (Cynomolgus LAG-3-ECD [6]) [M⁻¹ s⁻¹]	kon (Human PD-1 ECD-His) [M⁻¹ s⁻¹]
B1	1.6	0.002	1.3e+06	0.76	0.00057	0.031	0.0017	5.4e+07	0.0068	0.0293	0.0167	2.97	0.51	0.01	2e+07	
B2	1.1	0.0018	1.7e+06	0.76	0.00058	0.031	0.0017	5.5e+07	0.0077	0.0337	0.018	2.47	0.48	0.0098	2e+07	770000
